The term Km denotes the concentration of substrate that gives half-maximal velocity.

The values below come from patent US6699683B1, “Active site of human gamma glutamy hydrolase” (Health Research Incorporated, priority 1996, dated 2004).

For data set [1], the system named is wildtype, C19A, C124A and C290A hGH proteins. Particulars: 0.5 mM iodoacetate for 60 minutes.
Procedure: hGH activity in chromatography fractions was measured with 4-NH2-10-CH3PteGlu5 (Schirk Labs, Jona, Switzerland) as previously described (Rhee et al. 1998). The specific activities and reaction kinetics of hGH were determined using varying concentrations of 4-NH2-10-CH3PteGlu2 as substrate (Schirk Labs). Km and Vmax were determined by the method of Hanes (Price and Stevens 1989) with the best fit line calculated using Excel (Microsoft).
Data set [2] concerns human gamma glutamyl hydrolase (hGH). As to the kind of experiment: hGH activity assay with 4-NH2-10-CH3PteGlu2 as substrate (Km, Vmax, specific activity) of E. coli-expressed purified proteins. In kind it is biochemical. Conditions: for Specific activity (nmol 4-NH2-10-CH3PteGlu2 hydrolyzed/min/mg protein): 200 μM 4-NH2-10-CH3PteGlu2 for 5 minutes; for Specific activity (nmol 4-NH2-10-CH3PteGlu2 hydrolyzed/min/mg protein) / Km / Vmax (nmol 4-NH2-10-CH3PteGlu2 hydrolyzed/min/μg protein): mean ± SD of 3 experiments; for hGH activity (in words): purified E. coli-expressed proteins; for Km: substrate 4-NH2-10-CH3PteGlu2, variable concentrations; for Vmax (nmol 4-NH2-10-CH3PteGlu2 hydrolyzed/min/μg protein): variable 4-NH2-10-CH3PteGlu2 concentrations. The procedure: Mutant plasmids were used to transform E. colistrain BL21(DE3)pLysS to kanamycin resistance. Cultures (20 ml) were grown for 16 hours at 37° C., 225 rpm in tryptone-phosphate broth (Moore et al. 1993), containing 30 μg/ml kanamycin and 34 μg/ml chloramphenicol. An aliquot (6 ml) of this culture was used to inoculate 500 ml of the same medium. Cultures were incubated at 27° C., 225 rpm until the OD600nm was 0.5-0.6. Isopropyl β-D-thiogalactoside (IPTG) was added to a final concentration of 1 mM and cultures were incubated for a further 3 hours. Cells were harvested by centrifugation and stored at −80° C. Cells from 1 liter of broth were resuspended in 50 ml of 50 mM Tris/HCl pH 7.5 buffer containing 500 mM NaCl and Complete protease inhibitor cocktail (Boehringer Mannheim, Indianapolis, Ind.). The mixture was sonicated and clarified by centrifugation at 20,000 g for 30 minutes at 4° C. A 20-60% ammonium sulfate precipitate was resuspended in 50 mM sodium acetate, pH 5.8, 1 mM octyl-β-D-glucoside (OBG) and 5% glycerol (buffer A). After dialysis at 4° C. against buffer A and clarification by centrifugation at 30,000 g, 4° C. for 120 minutes, the dialysate was applied in two aliquots to a Protein Pak SP colummn (1.0 cm×10 cm, Waters Division of Millipore Corp., Milford, Mass.) equilibrated in buffer A. The protein was eluted (1 ml/min) with a linear gradient in buffer A of 0 to 1M NaCl over 60 minutes. Fractions were assayed for hGH activity or for hGH protein by Western blot. Fractions containing hGH were pooled and frozen at −80° C. Wildtype hGH and the C19A, C110A, and C290A mutants eluted as two peaks whereas the C124A mutant eluted as a single peak coincident with the first peak for the other hGH proteins. […] There was 8-10 times more hGH protein in peak 1 than in peak 2. A statistically significant amount (40-82%) of enzyme activity of proteins purified on the SP column was lost when stored either at 4° C. or at −80° C. Thawed aliquots of peak 1 were incubated for 2 hours at 4° C. with 2 ml of pHMB agarose (0.8 μmole/ml agarose) (Sigma Chemical, St. Louis, Mo.) equilibrated in 50 mM sodium acetate pH 5.8, 20 mM OBG, 500 mM NaCl (buffer B). The matrix was poured into a column (0.75 cm×4.5 cm) and washed with buffer B. hGH protein was eluted with buffer B containing additionally 10 mM dithiothreitol and 50 mM β-mercaptoethanol. EDTA (1 mM final) was added to each fraction to inhibit remaining proteases. Fractions containing hGH were pooled and stored at −80° C.
Km and Vmax activities were measured using variable 4-NH2-10-CH3PteGlu2 substrate concentrations. Specific activities were measured using 200 μM 4-NH2-10-CH3PteGlu2 for 5 minutes.

Data set [3] shares this test system. Kind of data set: Activity of baculovirus-expressed hGH mutants on methotrexate polyglutamates. In kind it is biochemical. Particulars: mutants expressed in the baculovirus system. The source says: This model for the active site of hGH has been tested by preparing the Cys110Ala, His220Ala, Glu222Ala, His171Ala, and His171Asn mutants of hGH. The mutants were expressed in the baculovirus system used for active hGH to facilitate the rapid expression and purification of the proteins. The mutant proteins were characterized for activity on methotrexate polyglutamates. […] The role of His171 in hGH has been examined by preparing the mutant His171Ala and the more conservative mutation His171Asn.

Marks after values point to notes of the source that are not given here.

On to `O=C(O)CI` [iodoacetate], for which the “Reduction of hGH activity by iodoacetate” value in data set [1] is 70-94%.

B1: Wildtype: mature human gamma glutamyl hydrolase (SEQ ID NO:1) with N-terminal methionine, expressed in E. coli (protein, listed as Homo sapiens)
chain: RPHGDTAKKPIIGILMQKCRNKVMKNYGRYYIAASYVKYLESAGARVVPVRLDLTEKDYEILFKSINGILFPGGSVDLRRSDYAKVAKIFYNLSIQSFDDGDYFPVWGTCLGFEELSLLISGECLLTATDTVDVAMPLNFTGGQLHSRMFQNFPTELLLSLAVEPLTANFHKWSLSVKNFTMNEKLKKFFNVLTTNTDGKIEFISTMEGYKYPVYGVQWHPEKAPYEWKNLDGISHAPNAVNPAFYLAEFFVNEARKKNHHFKSESEEEKALIYQFSPIYTGNISSFQQCYIFD
modifications: N-terminal methionine
B1: in data set [2], the “Specific activity (nmol 4-NH2-10-CH3PteGlu2 hydrolyzed/min/mg protein)” value was 1913 ± 32 nmol 4-NH2-10-CH3PteGlu2 hydrolyzed/min/mg protein, the “hGH activity (in words)” value is on record as “had activity”, the Michaelis constant (Km) is 55.2 ± 8.4 µM and the “Vmax (nmol 4-NH2-10-CH3PteGlu2 hydrolyzed/min/μg protein)” value is 2.7 ± 0.9 nmol 4-NH2-10-CH3PteGlu2 hydro.

B2: Glu222Ala: hGH mutant with Glu 222 changed to Ala, expressed in the baculovirus system (protein)
chain: RPHGDTAKKPIIGILMQKCRNKVMKNYGRYYIAASYVKYLESAGARVVPVRLDLTEKDYEILFKSINGILFPGGSVDLRRSDYAKVAKIFYNLSIQSFDDGDYFPVWGTCLGFEELSLLISGECLLTATDTVDVAMPLNFTGGQLHSRMFQNFPTELLLSLAVEPLTANFHKWSLSVKNFTMNEKLKKFFNVLTTNTDGKIEFISTMEGYKYPVYGVQWHPAKAPYEWKNLDGISHAPNAVNPAFYLAEFFVNEARKKNHHFKSESEEEKALIYQFSPIYTGNISSFQQCYIFD
For B2, in data set [3], the “Activity on methotrexate polyglutamates” value is recorded as “greatly reduced activity”.

B3: C124A: hGH variant with cysteine 124 replaced by alanine (protein)
chain: RPHGDTAKKPIIGILMQKCRNKVMKNYGRYYIAASYVKYLESAGARVVPVRLDLTEKDYEILFKSINGILFPGGSVDLRRSDYAKVAKIFYNLSIQSFDDGDYFPVWGTCLGFEELSLLISGEALLTATDTVDVAMPLNFTGGQLHSRMFQNFPTELLLSLAVEPLTANFHKWSLSVKNFTMNEKLKKFFNVLTTNTDGKIEFISTMEGYKYPVYGVQWHPEKAPYEWKNLDGISHAPNAVNPAFYLAEFFVNEARKKNHHFKSESEEEKALIYQFSPIYTGNISSFQQCYIFD
Regarding B3, in data set [2], the “Specific activity (nmol 4-NH2-10-CH3PteGlu2 hydrolyzed/min/mg protein)” value is 725 ± 79^a nmol 4-NH2-10-CH3PteGlu2 hydrolyzed/min/mg protein, the “hGH activity (in words)” value is recorded as “had activity”, the Km is 28.5 ± 3.7 µM and the “Vmax (nmol 4-NH2-10-CH3PteGlu2 hydrolyzed/min/μg protein)” value is given as 1.0 ± 0.1 nmol 4-NH2-10-CH3PteGlu2 hydro.

B4: His171Asn: hGH mutant with His 171 changed to Asn, expressed in the baculovirus system (protein)
chain: RPHGDTAKKPIIGILMQKCRNKVMKNYGRYYIAASYVKYLESAGARVVPVRLDLTEKDYEILFKSINGILFPGGSVDLRRSDYAKVAKIFYNLSIQSFDDGDYFPVWGTCLGFEELSLLISGECLLTATDTVDVAMPLNFTGGQLHSRMFQNFPTELLLSLAVEPLTANFNKWSLSVKNFTMNEKLKKFFNVLTTNTDGKIEFISTMEGYKYPVYGVQWHPEKAPYEWKNLDGISHAPNAVNPAFYLAEFFVNEARKKNHHFKSESEEEKALIYQFSPIYTGNISSFQQCYIFD
Take B4: in data set [3], the “Activity on methotrexate tetraglutamate” value is “inactive”.

B5: C290A: hGH variant with cysteine 290 replaced by alanine (protein)
chain: RPHGDTAKKPIIGILMQKCRNKVMKNYGRYYIAASYVKYLESAGARVVPVRLDLTEKDYEILFKSINGILFPGGSVDLRRSDYAKVAKIFYNLSIQSFDDGDYFPVWGTCLGFEELSLLISGECLLTATDTVDVAMPLNFTGGQLHSRMFQNFPTELLLSLAVEPLTANFHKWSLSVKNFTMNEKLKKFFNVLTTNTDGKIEFISTMEGYKYPVYGVQWHPEKAPYEWKNLDGISHAPNAVNPAFYLAEFFVNEARKKNHHFKSESEEEKALIYQFSPIYTGNISSFQQAYIFD
Regarding B5, in data set [2], the “Specific activity (nmol 4-NH2-10-CH3PteGlu2 hydrolyzed/min/mg protein)” value is given as 1406 ± 463 nmol 4-NH2-10-CH3PteGlu2 hydrolyzed/min/mg protein, the “hGH activity (in words)” value is “had activity”, the Michaelis constant (Km) came to 19.5 ± 8.6 µM and the “Vmax (nmol 4-NH2-10-CH3PteGlu2 hydrolyzed/min/μg protein)” value is listed as 1.9 ± 0.4 nmol 4-NH2-10-CH3PteGlu2 hydro.

B6: C19A: hGH variant with cysteine 19 replaced by alanine (protein)
chain: RPHGDTAKKPIIGILMQKARNKVMKNYGRYYIAASYVKYLESAGARVVPVRLDLTEKDYEILFKSINGILFPGGSVDLRRSDYAKVAKIFYNLSIQSFDDGDYFPVWGTCLGFEELSLLISGECLLTATDTVDVAMPLNFTGGQLHSRMFQNFPTELLLSLAVEPLTANFHKWSLSVKNFTMNEKLKKFFNVLTTNTDGKIEFISTMEGYKYPVYGVQWHPEKAPYEWKNLDGISHAPNAVNPAFYLAEFFVNEARKKNHHFKSESEEEKALIYQFSPIYTGNISSFQQCYIFD
On to B6, for which, in data set [2], the “Specific activity (nmol 4-NH2-10-CH3PteGlu2 hydrolyzed/min/mg protein)” value is on record as 1000 ± 72^a nmol 4-NH2-10-CH3PteGlu2 hydrolyzed/min/mg protein, the “hGH activity (in words)” value was “had activity”, the Km was 18.1 ± 0.4 µM and the “Vmax (nmol 4-NH2-10-CH3PteGlu2 hydrolyzed/min/μg protein)” value is given as 1.1 ± 0.3 nmol 4-NH2-10-CH3PteGlu2 hydro.

B7: H220A: hGH mutant with His 220 changed to Ala, expressed in the baculovirus system (protein)
chain: RPHGDTAKKPIIGILMQKCRNKVMKNYGRYYIAASYVKYLESAGARVVPVRLDLTEKDYEILFKSINGILFPGGSVDLRRSDYAKVAKIFYNLSIQSFDDGDYFPVWGTCLGFEELSLLISGECLLTATDTVDVAMPLNFTGGQLHSRMFQNFPTELLLSLAVEPLTANFHKWSLSVKNFTMNEKLKKFFNVLTTNTDGKIEFISTMEGYKYPVYGVQWAPEKAPYEWKNLDGISHAPNAVNPAFYLAEFFVNEARKKNHHFKSESEEEKALIYQFSPIYTGNISSFQQCYIFD
As to B7, the “Activity on methotrexate polyglutamates” value in data set [3] was “inactive”.
